Source: PMC10275869 (Nature Communications, 2023)

B1: 12B2 (human IgG1) (antibody, V domains shown)
VH: QVQLKESGPGLVAPSQSLSITCTVSGFSLASYGVHWVRQPPGKGLEWLGVIWTGGSTNYNSALMSRLSINRDNSKSQVFLKLNSLQTDDTAIYYCARDRGYGYGGFAYWGQGTLVTVSA
VL: DIQMTQSPASLSASVGETVTITCRASENIYSYLAWYQHKQGKSPQLLVYNAKSLAEGVPSRFSGSGSGTQFSLKINSLQPEDFGSYYCQHHYGTPWTFGGGTKLEIK
B2: mAb66 (human IgG1) (antibody, V domains shown)
VH: ETGSGGGLVKPGGTLTLTCKASGFTLSSYWMCWVRQAPGKGLELIACLYTNGATTWYASWVNGRFAISRSTSRNTVDLNMTSLTAADTATYFCARGSGSGWSWFNIWGPGTLVTVSS
VL: TGVMTQTPASVEAAVGGTVTIKCQASQNIISSLAWYQQKPGQRPKLLIYYASTLASGVPSRFKGSGSGTQFTLTISDLECADAATYYCQSYYYSGITYGNAFGGGTEVVVK
B3: 1F5 (human IgG1) (antibody, V domains shown)
VH: DVQLQESGPGLVKPSQSLSLTCSVTGYSITSDYYWNWIRQFPGNKLEWMGYVTYDGSNNYNPSLKNRISITRDSSKNQFFLKLNSVISEDTATYYCARFGSSYWAMDYWGQGTSLTVSS
VL: QIVLTQSPAIMSASLGEAITLTCSASSSVSYMHWYQQKSGTSPKLLIYSTSNLASGVPSRFSGSGSGTFYSLTISSVEAEDAADYYCHQWYSYPWTFGGGTKLEIK
B4: 5B3 (human IgG1) (antibody, V domains shown)
VH: EVQLVESGGGLVKPGGSLKLSCAASGFTFSSYDMSWVRQTPEKRLEWVAMISSGGSYSYYPDSVKGRFTISRDNAKNTLYLQMSSLRSEDTAMYYCARQGDYAWFAYWGQGTLVTVSS
VL: DIQMTQSPASQSASLGESVTITCLASQTIGTWLAWYQQKPGKSPQLLIYAATSLADGVPSRFSGSGSGTKFSFKISSLQAEDFVSYYCQQFYSTPFTFGGGTKLEIK

target: MojV F clamp2 (prefusion Mòjiāng virus fusion glycoprotein ectodomain stabilised with the clamp2 molecular … (Mòjiāng virus)); assay: ELISA; settings: both partners purified

Row | Binder | binding result
1 | B1 | no binding (tested: 50 μg/mL)
2 | B2 | no binding (tested: 50 μg/mL)
3 | B3 | no binding (tested: 50 μg/mL)
4 | B4 | no binding (tested: 50 μg/mL)
